According to PMC4222845 (PLoS Pathogens, 2014):

Biological target: the molecule itself
Experiment: SEC; Superdex 200 10/300 GL, 10 mM Tris-HCl pH 7.5, 150 mM NaCl, 0.5 mL/min, 4°C; equivalent molar concentrations, incubated 15 minutes; molecular weight from BioRad gel-filtration standards

B1: IpgC (natural protein)
chain: MSLNITENESISTAVIDAINSGATLKDINAIPDDMMDDIYSYAYDFYNKGRIEEAEVFFRFLCIYDFYNVDYIMGLAAIYQIKEQFQQAADLYAVAFALGKNDYTPVFHTGQCQLRLKAPLKAKECFELVIQHSNDEKLKIKAQSYLDAIQDIKE
notes: also called translocator-specific chaperone from Shigella
stoichiometry N: 2
